Publication PMC2677881

Target: T1, NtbZIP (Nicotiana tabacum, UniProt Q4PKH1 1-400)
T1 sequence: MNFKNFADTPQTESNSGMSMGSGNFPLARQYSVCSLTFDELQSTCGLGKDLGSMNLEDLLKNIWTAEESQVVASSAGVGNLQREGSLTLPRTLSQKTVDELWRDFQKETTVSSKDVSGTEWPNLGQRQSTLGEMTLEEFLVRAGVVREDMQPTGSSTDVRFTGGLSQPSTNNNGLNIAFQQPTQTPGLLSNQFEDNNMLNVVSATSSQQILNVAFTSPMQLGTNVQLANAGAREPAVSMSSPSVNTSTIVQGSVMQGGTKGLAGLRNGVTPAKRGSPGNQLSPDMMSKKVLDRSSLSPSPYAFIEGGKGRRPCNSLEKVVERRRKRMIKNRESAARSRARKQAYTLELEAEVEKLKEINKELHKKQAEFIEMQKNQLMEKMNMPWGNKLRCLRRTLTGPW
Experiment: EMSA

B1: 4x G-box of PNZIP promoter (dsDNA)
DNA 1: GCCACGTGTCGCCACGTGTCGCCACGTGTCGCCACGTGTC
DNA 2: GACACGTGGCGACACGTGGCGACACGTGGCGACACGTGGC
- binding result: binds
